{"source": "the nanobody polyreactivity screen of Harvey et al. (2022)", "data": [{"experiment": "yeast display, Sf9 membrane polyspecificity reagent, FACS + sequencing; frameworks hold sequencing errors", "outline": "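Synthetic nanobody libraries on Saccharomyces cerevisiae BJ5465 were galactose-induced for 36–48 hours, stained 1 hour at 4 °C with 10% biotinylated, detergent-solubilized Sf9 membrane reagent and enriched on streptavidin microbeads. FACS then separated cells into low and high (top ~1%) gates by anti-HA (expression) and streptavidin (reagent binding) fluorescence. Genes were colony-PCR amplified, MiSeq 2 × 250 sequenced and CDR-length filtered. A clone's polyreactivity label is that of its gate of origin.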", "values": [{"sequence": "QVQLVESGGGLVQAGGSLRLSCAASGSIFTAYARGWYRQAPGKERELVAAISRSGGRTYYADSVKGRFTISRDNPKKTVYLQMNSLKPEDTAVYYCAARRRRYIANLYNYWGQGTQVTVSS", "polyreactivity (PSR sort gate)": "high polyreactivity"}, {"sequence": "QVQLVESGGGLVQAGGSLRLSCAASVSTFYRYTMVWYRQAPGKERELVAAITYRGGTTYYADSVKGRFTISRDNAKNTVYLQMNSLKPEDTAVYYCAAYSSLGYIMNYWGQGTQVTVSS", "polyreactivity (PSR sort gate)": "high polyreactivity"}, {"sequence": "QVHLVESGGGLVQAGGILRLSWASSGFIFPRYAMGSYRQAPGKERELVAGITSRGTGTYYADSVKGRFTISRDNAKNTVYLQMNSLKQEDTAVYYCARLSTKPLPYDDWGQGTQVTVSS", "polyreactivity (PSR sort gate)": "high polyreactivity"}, {"sequence": "QVQLVESGGGLVQAGGSLRLSCAASGFTFPLNAMGWYRQAPGKERELVAAITNGGTTYYADSVKGRFTISRDNAKNTVYLQMNSLKPEDTAVYYCNAQATPYEGRYDESEYDYWGQGTQVTVSS", "polyreactivity (PSR sort gate)": "low polyreactivity"}, {"sequence": "QVQLVESGGGLVQAGGSLRLSCAASGRIYGLYAMGWYRQAPGKERELVAAISEGGGSTNYADSEKGRFTISRDNAKNTFYLQMNSLKPDDTAVYYCAATYRTGVRRYYSWGQGTQVTVSS", "polyreactivity (PSR sort gate)": "low polyreactivity"}, {"sequence": "QVQLVESGGGLVQAGGSLRLSCAASGSTFSFYTMGWYRQAPGKERELVAAISQSGTSTYYADSVKGRFTISRDNAKNTVFLQMNSLKPEDTAVYYCATVRKFYFHTRWYYYEGGYWGQGTQVTVSS", "polyreactivity (PSR sort gate)": "high polyreactivity"}, {"sequence": "QVQLVESAGGLVQAGGSLRLSCAASGRTFCGNAMGWYRQAPGKERELVAAITSGGSTYYADSVKGRFTISRDNAKNTVYLQMNSLKPEDTAVYYCATRRIYKWYRYYYWGQGTQVTVSS", "polyreactivity (PSR sort gate)": "high polyreactivity"}, {"sequence": "QVHLVESGGGLVQAGGSLRLSCAASGSTLYTYGMGWYRQAPGKERELVASISWRAARTYYADSVKGRFTISRDNAKNTVYLQMNSLKPEDTAVYYCNADYYIAPYDSWGQGTQVTVSP", "polyreactivity (PSR sort gate)": "low polyreactivity"}, {"sequence": "QVQLVESGGGLVQAGGSLRLSCAASGRIFYSYAMGWYRQAPGKERELVAAISRSGGRTYYADSVKGRFTISRDNAKNTVYLQMNSLKPEDTAVYYCNAYRPRFSTRVDYWGQGTQVTVSS", "polyreactivity (PSR sort gate)": "high polyreactivity"}, {"sequence": "QVQLVESGGGLVQAGGSLRLSCAASGYTFYDNAMGWYRQAPGKEREFVASITWSGGSTYYADSVKGRVTISRDNAKNTVYLQMNSLKPEDTAVYYCAAESWFKYDYWGQGTQVTVSS", "polyreactivity (PSR sort gate)": "low polyreactivity"}, {"sequence": "QVQLQESGGGLVQVGGSLRLTCAASGTIFIYGFLGWNRQAPGKERELVASINLGGITNYADSVKGRFTISRDNANNTVYLQMISLKPEDTAVYFCAAYFVTGQNYGSWGQGTQVTVSS", "polyreactivity (PSR sort gate)": "low polyreactivity"}, {"sequence": "QVQHVESVGGLVQAGGSLRLSCAASGLIFLYNAMGWYRQAPGKVRELVAAITSSGGSTYYADSVKGRLTISRDYAKNTVYLQMNSLKPEDTAVYYCANRYQSYYYSHWGYRYYWGQGTQVTVSS", "polyreactivity (PSR sort gate)": "high polyreactivity"}, {"sequence": "QVQLVESGGGLVQAGGSLRLSCAASGRIFNLNAMGWYRQAPGKERELVAAISKSGTRTYYADSVKGRFTISRDNAKNTVYLQMNSLKQEDTAVYYCAAEALYYDRLGWVYLRYDYWGQGTQVTVSS", "polyreactivity (PSR sort gate)": "high polyreactivity"}, {"sequence": "QVQLVESGGGLVQAGGSLGLSCAASGFIFDAYAMGWYRQAPGKERELVAGISIGGRTNYADSVKGRFTISRDNAKNTVYLQMNSLKPEDTAVYYCAARNYRYYYGSYYRGPITNYEYWGQGTQVTVSS", "polyreactivity (PSR sort gate)": "low polyreactivity"}, {"sequence": "QVQLVESGGGLVQAGGSLRLSCAASGLIFTWNAMGWYRQAPGKEREFVAAISTGGSTSYADSVKGRFTISRDNAKNTVYLQMNRLKPEDTAVYYCARDSSIWSHGSWYDYWGQGTQVTVSS", "polyreactivity (PSR sort gate)": "low polyreactivity"}, {"sequence": "QVQLVESGGGLVQAGGSLSLSCAASGSILGYYAMGWYRQAPGKERELVAAISGRGGSTYYADSVKGRFTISRDNAKNPVYLQMNSLKPEDTAVYYCAKRSVWRGWGQGTQVTVSS", "polyreactivity (PSR sort gate)": "high polyreactivity"}, {"sequence": "QVQLVESGGGLVQAGGSLRLICAASGRTFINYAMGWSRQAPGKERELVAAITTGGRTNYADSVKGRFTISRDNAKNTVYLQMKSLKPEDTAVYYCAADRYYWGRYTLNYWGQGTQVTVSS", "polyreactivity (PSR sort gate)": "low polyreactivity"}, {"sequence": "QVQLVESGGGLVQAGGSLRISCAASGSTFLYNNMGWYRQAPGKERELVAAITWSGGNTYYADSVKGRFTISRDNAKNTVYLQMNSLKPEDTAVYYCNAVWYPPKRKCFDYWGQGTQVTVSS", "polyreactivity (PSR sort gate)": "low polyreactivity"}, {"sequence": "QVQRVESRGGLVQAGGSLRLTCAASGRTFWRYVMGWYRQAPGKERELVATISSGGSTNYAYSVKGRFTISRDNAKNTVYLQMNSLKPEDTAVYYSAAYIYDGVWVYPYYPYDYWGQGTQVTVSS", "polyreactivity (PSR sort gate)": "low polyreactivity"}, {"sequence": "QVQLVESGGGLVQAGGSLRLSCAASGRIFDVNAMGWYRQAPGKERELVAAITYSDGSTYYADSVKGRFTISRDNAKNTVYLQMNSLKPEDTAVYYCAATQEPVTPQPYGYWGQGTQVTVSS", "polyreactivity (PSR sort gate)": "low polyreactivity"}, {"sequence": "QVHLQESGCGLVQAGGSLRLSCAPSGSIFVSVTMGWYRQAPGKERELVASIGRGSTTNHADSVKGRFTISRDNAKNIVYLLMNSLKPEDTAVYFCAALESYGKYHGYWGQGTKVTVSS", "polyreactivity (PSR sort gate)": "low polyreactivity"}, {"sequence": "QVQLVESGGGLVQAGGSLRLSCAASGITFSYYAMGWYRKAARKERELVAAINGGGSRTYYADSVKGRFTISRDNAKNTVYLQMNSLKPEETAVYYCAAYSGQARGYDYWGQGTQVTVSS", "polyreactivity (PSR sort gate)": "high polyreactivity"}, {"sequence": "PVQLVESGGGLVQAGGSLRLSCAASGFTLYDYAMGWYRPAPGKERELVAAISRSGGRTYYADSVKGRFTISRDNAKNTVYLQMNSLKPEDTAVYYCAADILRGQWYEYDYWGQGTQVTVSS", "polyreactivity (PSR sort gate)": "high polyreactivity"}, {"sequence": "QVQLLESGGGLVQAGGSLSLSCMASGSILGDRMSWYRQAPGKEHELVATIYDGGITYYADSMKGRFTISRDNAKNTVYLQMNSLRPEDTAVYYCGASFEGYRYHVYCGQGTQVTVSS", "polyreactivity (PSR sort gate)": "low polyreactivity"}, {"sequence": "QVQLGESGGGLVQAGGSLRLSCAASGSTFNENAMGWYRQAPGKERELVAAISNDGSTTYADSVKGRFTISRDNAKNTVYLQMNSLKPEDTALYYCNAVSYIDTQSSLGDSWGQGTQVTVSS", "polyreactivity (PSR sort gate)": "low polyreactivity"}, {"sequence": "QVQLVESGGGLVQAGGSLRLSCAASGSILPVNAMGWYRQAPGKERELVAAITSSGSTTYADSVKGRFTISRDNAKNTVYLQMNSLKEEDTAVYYCAADVYWSYYLYYIYKGGYWGQGTQVTVSS", "polyreactivity (PSR sort gate)": "low polyreactivity"}, {"sequence": "QVQLLESGGGLVQPGGILRLSCAASGSTFVRYAMGWYRQAPGKERELVAAISYRGGSTYYADSVKGLFTISRDNANNSVYLELYSLKPEDTAVYYCAAESRHVEGEYWGQGTQVTVSS", "polyreactivity (PSR sort gate)": "high polyreactivity"}, {"sequence": "QVPLVESGGGLVQAGRSLRLSCAASGITFRHNTMGWYRQAPGKERELVSTNYADSVKGRFTFSRDNAKNTVYLQMNSLKPEDTAVYYCNADGTFESDYWGQGTQVTVSS", "polyreactivity (PSR sort gate)": "low polyreactivity"}, {"sequence": "QDQLVESGAGLVQAGGSLRLSCAASGFNFYRYAMGWYREAPGKERELVATISVRGGTYYADSVKGRFTISRDNAKNTVYLQMNSLKPEDTAVYYCAARVHLWGDTLKFVRVGYWGQGTQVTVSS", "polyreactivity (PSR sort gate)": "low polyreactivity"}, {"sequence": "QVQLVESGGGLVQAGGSLRLSCAASGSIFGENAMGWYRQAPGKERELVAAITWSGASTYYADSVKGRFTISRDNAKNTVYLQMNSLKPEDTAVYYCNADRYVRYSTFDYWGQGTQVTVSS", "polyreactivity (PSR sort gate)": "high polyreactivity"}, {"sequence": "QVQLVESGGGLVQAGGSLRLSCAASGRTFRVYVMGWYRQAPGKERELVAAIRSDASTNYADSVKGRFTISRDNAKNTVYLQMISLKPEDTAFYYCAARRGKSAGGYGDYYWGQGTQVTVSS", "polyreactivity (PSR sort gate)": "high polyreactivity"}, {"sequence": "QVQLVESGGGLVQAGGSLRLSCAASGRIFYWYAMGWYRQAPGKERELVAAISSAGTTYYADSVKGRFTISRDNAKNTVYLQMNSLKPEDTAVYYCAATLGFYRRSEYDYWGQGTQVTVSS", "polyreactivity (PSR sort gate)": "high polyreactivity"}, {"sequence": "QVQLVESGGGLVQAGGSLRLSCAASAFILYFNAMGWYRQAPGKESDLVAAISRGDGYTYADSVKGRFTISRDNAKNTVYLLMNRLNPEDTEVYYCNAGLGVVVTLYVGSGYDSWGHGTQVTVSS", "polyreactivity (PSR sort gate)": "low polyreactivity"}, {"sequence": "QVQLVESGGGLVQAGGGLRLSCAASGTFKRNAMGWYRQAPGKERELVATITRTGSTTYADSVKGRFTISRDNAKNTVYLQMNSLKPEDTAVYYCAAGYPPEDPEDYWGQGTQVTVSS", "polyreactivity (PSR sort gate)": "low polyreactivity"}, {"sequence": "QVHLVESGGGLVQAGGSLRLSCAASGSIFTGYAMGWYRQAPGKERELVAGISWGGTSTYYADSVKGRFTISRDNAKNTVYLQMNSLKPEDTAVYYCAAKPYYFYGMDYWGQGTQVTVSS", "polyreactivity (PSR sort gate)": "high polyreactivity"}, {"sequence": "QVQLVESGGGLVQAGGSLRLSCAASGSIFDGYAMGWYRQAPGKERELVAAISSGGSTYYADSVKGRFTISRDNAKNTVYLQMNSLKPEDTAVYYCNRVRRRVSTSIYNYWGQGTQVTVSS", "polyreactivity (PSR sort gate)": "high polyreactivity"}, {"sequence": "QLQLVESGGGLVQAGGSLRLSCAASGIIFRWYAMGFYRQAPGKERELVAAITSSGGRTYYADSVKGRFTISRDNAKNTVYLPMNILKPEDTAVYYCAASYYIVGCDPYDYWGQGTQVTVSS", "polyreactivity (PSR sort gate)": "high polyreactivity"}, {"sequence": "QVQLVESGGGLVQAGGSLRLSCAASGIIFRRYAMGWYRPEPGLVRELVAAISASGVRTYYADSVKGRFTISRDNAKNTVYFQMNSLKPEDTAVYYCAAATKRVEYEYWGQGTQVTVSS", "polyreactivity (PSR sort gate)": "high polyreactivity"}, {"sequence": "QVQLVESGGGLVQAGGSLRLSCAASGRIFAVNAMGWYRQAPGNERELVAAITRGGSTNYADSVKGRFTISRDNAKNTVYLQMNSLKPEDTAVYYCAARVYTSPPVRSAPTGYYYWGQGTQVTVSS", "polyreactivity (PSR sort gate)": "high polyreactivity"}, {"sequence": "QVQLVESGGGLVQAGGSLRLSCAASGFTLDWYVMGWYRQATGKERELVAAISSSGGRTYYADSVKGRFTISRDNAKNTVYLQMNSLKPEDTAVYYCAARNQYGGYPYGYDYWGQGTQVTVSS", "polyreactivity (PSR sort gate)": "high polyreactivity"}, {"sequence": "QDQLVETGGGLVQAGCSLRLSCAASGRIFVPYAMGWYRQSHGKERELVAAISGSDGSTYYADSVKGRFTISRDNAKNTVYLQMNRLKPEDTAVYYCARLLIYAPPSGSHRYYPFDYWGQGTQETVSS", "polyreactivity (PSR sort gate)": "low polyreactivity"}, {"sequence": "QVQLVESGGGLVQAGGSLRLSCAASGITFVYYTMGWYRQAPGKERELVAAISSTGGSTYYADSVKGRFTISRDNAKNTVYLQMNSLKPEDTAVYYCAADARTFGGYGYWGQGTQVTVAS", "polyreactivity (PSR sort gate)": "high polyreactivity"}, {"sequence": "QVQLVESGGGLVQAGGSLRLSCAASGRIFGAYAMGSYRQAPGKERELVAAIDIRGGKTYYADSVKGRFTISRDYSKNSVYLQMNSMKPEDTAVYYCAADTWYDAYNYWGQGTQVTVSS", "polyreactivity (PSR sort gate)": "low polyreactivity"}]}]}
